{
  "source": "patent US8614103B2",
  "about": "“Compositions and methods for treating sphingosine-1-phosphate (S1P) related ocular diseases and conditions” (Lpath, Inc., priority 2006, dated 2013)",
  "molecules": {"B1": {"name": "LT1002: murine monoclonal antibody to S1P, IgG1 kappa, hybridoma clone 306D326.26 (antibody, listed as Mus sp., V domains shown)", "VH": "QAHLQQSDAELVKPGASVKISCKVSGFIFIDHTIHWMKQRPEQGLEWIGCISPRHDITKYNEMFRGKATLTADKSSTTAYIQVNSLTFEDSAVYFCARGGFYGSTIWFDFWGQGTTLTVS", "VL": "ETTVTQSPASLSMAIGEKVTIRCITTTDIDDDMNWFQQKPGEPPNLLISEGNILRPGVPSRFSSSGYGTDFLFTIENMLSEDVADYYCLQSDNLPFTFGSGTKLEIK"}},
  "assay_type_in_all_cases": "in vivo, mouse",
  "key": {"[1]": {"tested_on": "CNV lesions", "test": "Murine laser-induced CNV model (Example 4)", "details": "0.5 μg", "description": "Female C57BL6/J mice were subjected to laser-induced rupture of Bruch's membrane and administered either 0.5 μg of Sphingomab or an isotype-matched non-specific (NS) antibody diluted in 2 μl of physiological saline. Mice were sacrificed 14 and 28 days after laser rupture.\nTo induce CNV lesions, the pupils were dilated with ophthalmic tropicamide (0.5%) and phenylephrine (2.5%). A coverslip was placed on the eye. An Oculight GL 532 nm (Iridex Corporation, Mountain View, Calif.) coupled to a slit lamp set to deliver a 100 msec pulse at 150 mW with a 50 μm spot size was used to rupture Bruch's membrane in three quadrants of the right eye located approximately 50 μm from the optic disc at relative 9, 12 and 3 o'clock positions. The left eye served as an uninjured control in all cases. Any lesion not associated with a vapor bubble or lesions that became confluent were excluded from analysis. […]\nTo assess collagen deposition, the sclera-choroid-RPE complex was stained with Masson's Trichrome. […] Approximately 30 sections per lesion were evaluated. Quantitation of the volume of collagen deposition was calculated in the same manner as described for CNV lesion volume.\nCaptured digital images were evaluated morphometrically using ImageJ software (Research Services Branch, National Institutes of Health, Bethesda, Md.)."}, "[2]": {"tested_on": "perivascular fibrosis", "test": "Permanent myocardial infarction model, perivascular fibrosis", "details": "25 mg/kg from 48 hrs after surgery; two weeks", "description": "Studies evaluated the efficacy of SPHINGOMAB to reduce cardiac scar formation after permanent myocardial infarction (MI) via ligation of the left descending coronary artery in mice. Systemic administration of 25 mg/kg SPHINGOMAB or saline was initiated 48 hrs after surgery. Antibody administration at 48 hr. was chosen to allow normal, reparative scar formation to occur during the early remodeling phase and permit beneficial, S1P-stimulated angiogenesis immediately after the MI. Two weeks after the infarct, mice were sacrificed and fibrosis was accessed by Masson's trichrome staining of the cardiac tissue. […] As a control for any non-specific wound-healing responses, sham animals underwent thoracotomy without coronary artery ligation (FIG. 7E)."}, "[3]": {"tested_on": "macrophage and mast cell infiltration", "test": "Murine infarct model, immune cell infiltration", "details": "25 mg/kg; four days post-MI", "description": "SPHINGOMAB reduced immune-cell wound infiltration in vivo. Mice were subjected to MI, treated with saline or 25 mg/kg SPHINGOMAB 48 hr. after surgery and then sacrificed on day 4. SPHINGOMAB reduced macrophage (A) and mast cell (B) infiltration into the wound. Data are represented as fold decrease of saline-treated values.\nBased upon the similarities of immune and inflammatory responses in CNV and CVD, the efficacy of SPHINGOMAB to mitigate immune cell infiltration into a wound was evaluated in a murine infarct model as an indication of SPHINGOMAB's potential effects in mitigating these damages during AMD [Vine, et al. (2005), Opthalmology, vol 112: 2076-80; and Seddon and Chen (2004), Int Opthalmol Clin, vol 44: 17-39]. Four days post-MI, macrophage and mast cell infiltration was evaluated using MAC-1 and MCG35 antibodies, respectively, within the area at risk."}, "[4]": {"tested_on": "CNV lesions", "test": "CNV animal model, murine vs humanized variants (Example 17)", "details": "0.5 ug intravitreal Day 0 and Day 6; 14 days post laser; vs saline", "description": "The humanized antibody variants and the murine antibody were compared for their ability to inhibit neo-vascularization in the CNV animal model of AMD as shown in FIG. 13. […] Mice were sacrificed 14 days post laser surgery. Control mice were treated with aqueous buffer (PBS) or an isotype-matched non-specific antibody. Three of the humanized variants inhibited angiogenesis essentially equivalently to the murine antibody as assessed by measurement of CNV area. CNV lesion volumes are represented as means±SEM. […]\nThe morphometric and volumetric CNV lesions were measured as follows. […]\nCaptured digital images were evaluated morphometrically using ImageJ software (Research Services Branch, National Institutes of Health, Bethesda, Md.). Images were split into separate RGB channels for analysis of the red and green channels as follows: 1) a calibration for the specific objective and microscope was applied to set the pixel-to-length ratio; 2) a threshold was applied using the Otsu algorithm; 3) images will be made binary; 4) a region-of-interest (ROI) was outlined to include the entire lesion area; 5) a particle analysis was performed to quantify the pixel area above the threshold level within the ROI. […]"}},
  "data": [
    {"molecule": "B1", "values": [
      {"measurement": "choroidal neovascularization", "setting": "[1]; 14 and 28 days after laser-induced rupture of Bruch's membrane", "value": "dramatically attenuates"},
      {"measurement": "fibrosis associated with CNV lesion formation", "setting": "[1]; 28 days after laser rupture, Masson's Trichrome", "value": "significantly reduces"},
      {"measurement": "perivascular fibrosis after MI", "setting": "[2]", "value": "almost complete abrogation of perivascular fibrosis"},
      {"measurement": "density of inflammatory macrophages", "setting": "[3]", "value": "dramatically attenuated"},
      {"measurement": "density of mast cells", "setting": "[3]", "value": "dramatically attenuated"},
      {"measurement": "Percent inhibition of lesion size", "setting": "[4]", "value": "approximately 80%"}
    ]}
  ]
}
